Measured values from patent publication US20130224187A1 (Alexion, published 2013).

T1: human C5a (human, UniProt P01031 678-751)
T1 construct: also called hC5a; free human C5a
T1 sequence: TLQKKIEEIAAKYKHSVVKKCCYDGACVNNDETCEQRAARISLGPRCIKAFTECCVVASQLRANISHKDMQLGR


Target: T1, human C5a
Test: SPR (Biacore); antibody captured by anti-human Fc on CM5 chip, human C5a 0.6-5.9 nM as analyte; 1:1 Langmuir fit
Method: See, e.g., Karlsson and Larsson (2004) Methods Mol Biol 248:389-415. […] The surface was regenerated with 20 mM HCl, 0.02% P20 after each cycle to remove bound antibody and antigen. The data was evaluated using Biacore BlAevaluation software using a 1:1 Langmuir Model Fit (Rmax:Global Fit; R1:Local Fit). Kinetics information such as (kₐ: Association Rate constant), (kd:Dissociation Rate constant) and KD (Equilibrium Dissociation constant) was obtained from the fit. These experiments were for screening purposes with a minimal number of analyte concentrations (3 to 4) with 1 duplicate.

| Binder | Kd [nM] | koff [s⁻¹] | kon [M⁻¹ s⁻¹] |
| --- | --- | --- | --- |
| BNJ369 (antibody, human IgG2, kappa, Humanized full length IgG) heavy: QVQLVQSGAEVKKPGASVKVSCKASGYTFTDYSMDWVRQAPGQGLEWMGAIHLNTGYTNYNQKFKGRVTMTRDTSTSTVYMELSSLRSEDTAVYYCARGFYDGYSPMDYWGQGTTVTVSSASTKGPSVFPLAPCSRSTSESTAALGCLVKDYFPEPVTVSWNSGALTSGVHTFPAVLQSSGLYSLSSVVTVPSSNFGTQTYTCNVDHKPSNTKVDKTVERKCCVECPPCPAPPVAGPSVFLFPPKPKDTLMISRTPEVTCVVVDVSQEDPEVQFNWYVDGVEVHNAKTKPREEQFNSTYRVVSVLTVLHQDWLNGKEYKCKVSNKGLPSSIEKTISKAKGQPREPQVYTLPPSQEEMTKNQVSLTCLVKGFYPSDIAVEWESNGQPENNYKTTPPVLDSDGSFFLYSRLTVDKSRWQEGNVFSCSVMHEALHNHYTQKSLSLSLGK light: DIVMTQSPDSLAVSLGERATINCRASESVDSYGNSFMHWYQQKPGQPPKLLIYRASNLESGVPDRFSGSGSGTDFTLTISSLQAEDVAVYYCQQSNEDPYTFGGGTKVEIKRTVAAPSVFIFPPSDEQLKSGTASVVCLLNNFYPREAKVQWKVDNALQSGNSQESVTEQDSKDSTYSLSSTLTLSKADYEKHKVYACEVTHQGLSSPVTKSFNRGEC | 0.0531 | 0.000223 | 4.19e+06 |
| BNJ381 (antibody, human IgG2, kappa, V domains shown, Humanized full length IgG; Light chain CDR2 is humanized) VH: QVQLVQSGAEVKKPGASVKVSCKASGYTFTDYSMDWVRQAPGQGLEWMGAIHLNTGYTNYNQKFKGRVTMTRDTSTSTVYMELSSLRSEDTAVYYCARGFYDGYSPMDYWGQGTTVTVSS VL: DIVMTQSPDSLAVSLGERATINCRASESVDSYGNSFMHWYQQKPGQPPKLLIYWASTRESGVPDRFSGSGSGTDFTLTISSLQAEDVAVYYCQQSNEDPYTFGGGTKVEIKR | 0.0815 | 0.000209 | 2.57e+06 |

Target: T1, human C5a
Test: ELISA

| Binder | binding result |
| --- | --- |
| 5an177ME (antibody, V domains shown, Murine) VH: EVKLVESGGGLVKPGGSLKLSCAASGITFSSYYMAWVRQTPDKRLEWVATISSGGSYTYYPDNVKGRFTISRDNAKNTLYLQMSSLKSEDTAMYYCTRYYEDDAMDYWGQGTSVTVSS VL: EIVLTQSPAIMSASPGEKVTMTCSASSSVSYMHWYQQKSGTSPKRWIYDTSKLASGVPARFSGSGSGTSYSLTISSMEAEDAATYYCQQWSSNPLTFGAGTKLELKR | binds |
| 5an047 (antibody, V domains shown, Murine) VH: EVQLQQSGPELVKPGASVRISCKASGYTFSDYYYMNWVKKSHGKSLEWIGYIFPKTGGTHYNQRFKGKATLTVDKSSSTAYMELRSLTSEDSAVYYCASGPFAYWGQGTLVTVSA VL: EIVLTQSPAIMSASPGEKVTMTCRASSSVSSSYLHWYQQKSGASPKLWIYSTSNLASGVPARFSGSGSGTSYSLTISSVEAEDAATYYCQQYSGYPLTFGAGTKLELKR | binds |
| 5an054ME (antibody, V domains shown, Murine) VH: EVQLQQSGPELVKPGASVKISCKASGYTFTDYYYMNWVKQSHGKSLEWIGYIFPNTGGTTYNQRFKGKATLTVDKSSSTAYMELRSLTSEDSAVYYCASGPFAYWGQGTLVTVSA VL: QIVLTQSPVIMSASPGEKVTMTCSASSSVSYMYWYQQKPGSSPRLLIYDTSNLASGVPVRFSGSGSGTSYSLTISRMEAEDAATYYCQQWSSYPPTFGAGTKLELKR | binds |
| 5anE11 (antibody, V domains shown, Murine) VH: EVQLQQSGPELVKPGASVRISCKASGYTFSDYYYMNWVKKSHGKSLEWIGYIFPKTGGTHYNQRFKGKATLTVDKSSSTAYMELRSLTSEDSAVYYCASGPFAYWGQGTLVTVSA VL: DIVMTQSQKFMSTSVGDRVSVTCKASQNVGTNVAWYQQKPGQSPKALIYSASYRYSGVPDRFTGSGSGTDFTLTISNVQSEDLAEYFCQQYNSYPWTFGGGTKLEIKR | binds |
| 5anG12 (antibody, V domains shown, Murine) VH: EVQLQQSGPELVKPGASVRISCKASGYTFNDYYYMNWVKQSHGKSLEWIGYIFPKTGGTHYNQRFKGKATLTVDKSSSTAYMELRSLTSEDSAVYYCASGPFAYWGQGTLVTVSA VL: QIVLTQSPAIMSASPGEKVTMTCSASSSISYMHWYQQKPGTSPKRWIYDTSKLASGVPARFSGSGSGTSYSLTISSMEAEDAATYYCHQRSSYPWTFGGGTKLEIKR | binds |
| 5an052 (antibody, V domains shown, Murine) VH: EVQLQQSGPELVKPGASVRISCKASGYTFNDYYYMNWVKQSHGKSLEWIGYIFPKTGGTHYNQRFKGKATLTVDKSSSTAYMELRSLTSEDSAVYYCASGPFAYWGQGTLVTVSA VL: QIVLTQSPAIMSASPGEKVTLTCSASSSVSSSYLYWYQQKPGSSPKLWIYSTSNLASGVPARFSGSGSGTSYSLTISTVEAEDAASYFCHQWSSYPPTFGGGTKLEIKR | binds |
| 5an053 (antibody, V domains shown, Murine) VH: EVQMQQSGPELVKPGASVKISCKASGYTFSDYYYMNWVKKSHGKSLEWIGYIFPKTGGTNYNQRFKGKATLTVDKSSSTAYMELRSLTSEDSAVYYCASGPFAYWGQGTLVTVSA VL: EIVLTQSPVIMSASPGEKVTMICSASSSISYMHWYQQKPGTSPKRWIYDTSKLASGVPARFSGSGSGTSYSLTISIMEAEDAATYYCHQRSSYPWTFGGGTKLEIKR | binds |
| 5an055 (antibody, V domains shown, Murine) VH: EVQLQQSGPELVKPGASVKISCKASGYTFSDYYYMNWVKKSHGKSLEWIGYIFPKTGGTNYNQRFKGKATLTVDKSSSTAYMELRSLTSEDSAVYYCASGPFAYWGQGTLVTVSA VL: EIVLTQSPAIMSASPGEKVTLTCSASSSVSSSYLYWYQQKPGSSPKLWIYSTSNLASGVPARFSGSGSGTSYSLTISSMEAEDAASYFCHQWSSYPPTFGGGTKLEIKR | binds |
| 5an109 (antibody, V domains shown, Murine) VH: EVQLQQSGPELVKPGASVKISCKASGYTFSDYYYMNWVKKSHGKSLEWIGYIFPKTGGTNYNQRFKGKATLTVDKSSSTAYMELRSLTSEDSAVYYCASGPFAYWGQGTLVTVSA VL: EIVLTQSPAIMSASPGEKVTMTCSASSSVSYMYWYQQKPGSSPRLLIYDTSNLASGVPVRFSGSGSGTSYSLTISRMEAEDAATYYCQQWSSYPPTFGGGTKLEIKR | binds |
| 5anG10 (antibody, V domains shown, Murine) VH: EVQLQQSGPELVKPGASVRISCKASGYTFNDYYYMNWVKQSHGKSLEWIGYIFPKTGGTHYNQRFKGKATLTVDKSSSTAYMELRSLTSEDSAVYYCASGPFAYWGQGTLVTVSA VL: QIVLTQSPAIMSASPGEKVTMTCSASSSISYMHWYQQKPGTSPKRWIYDTSKLASGVPARFSGSGSGTSYSLTISSMEAEDAATYYCHQRRSYPWTFGGGTKLEIKR | binds |
| 5an181 (antibody, V domains shown, Murine) VH: EVQLQQSGPELVKPGASVKISCKASGYTFSDYYYMNWVKKSHGKSLEWIGYIFPKTGGTNYNQRFKGKATLTVDKSSSTAYMELRSLTSEDSAVYYCASGPFAYWGQGTLVTVSA VL: EIVLTQSPAIMSASPGEKVTMTCRASSSVSSSYLHWYQQKSGASPKLWIYSTSNLASGVPARFSGSGSGTSYSLTISSVEAEDAATYYCQQYSGYPLTFGAGTKLELKR | binds |
| 5an110ME (antibody, V domains shown, Murine) VH: EVQLQQSGPELVKPGASVKISCKASGYTFSDYYYMNWVKKSHGKSLEWIGYIFPKTGGTNYSQRFKGKATLTVDKSSSTAYMELRSLTSEDSAVYYCASGPFAYWGQGTLVTVSA VL: DIVMTQSQKFMSTSVGDRVSVTCKASQNVGTNVAWYQQKPGQSPKALIYSASYRYSGVPDRFTGSGSGTDFTLTISNVQSEDLAEYFCQQYNSYPFTFGSGTKLEIKR | binds |
| 5an188ME (antibody, V domains shown, Murine) VH: EVQLQQSGAELVKPGTSVKLSCKASGYTFTSYWMHWVKQRPGQGLEYIGEIHPSSGHTNYHEKFKSKATLTVDKSSSTAYMQLSSLTSEDSAVYYCARASLLRAYAMDYWGQGTSVTVSS VL: DIVLTQSPASLAVSLGQRATISCRASESVDSYGNSFMHWYQQKPGQPPKLLIYLASNLESGVPARFSGSGSRTDFTLTIDPVEADDAATYYCQQNNEDPLTFGAGTKLELKR | binds |
| 5an185ME (antibody, V domains shown, Murine) VH: EVQPQQSGPELVKPGSSVKISCKASGYTFTDYSMDWVKQSHGKSLEWIGAIHLNTGYTNYNQKFKGKATLTVDKSSSTAYMELRSLTSEDSAVYYCARGFYDGYSPMDYWGQGTSVTVSS VL: DIVLTQSPASLAVSLGQRATISCRASESVDSYGNSFMHWYQQKPGQPPKLLIYRASNLESGIPARFSGSGSRTDFTLTINPVEADDVATYYCQQSNEDPLTFGAGTKLELKR | binds |
| 5an183 (antibody, V domains shown, Murine) VH: EVQLQQPGSVLVRPGATVKLSCKASGFTFTSSWMHWAKQRPGQGLEWIGEIHTSGHTNYNEKFKGKATLTLDTSSSTAYVDISSLTSEDSAVYYCARGGLRRGYAMDYWGQGTSVTVSS VL: DIVLTQSPASLAVSLGQRATISCRASESVDSYGNSFMHWYQQKPGQPPKLLIYRASNLESGIPARFSGSGSRTDFTLTINPVEADDVATYYCQQSNEDPLTFGAGTKLELKR | binds |
